Experimental data from PMC5618221.

Tests used:
[1] = molecular target: Hbl B in culture supernatant of B. cereus strain MHI 1532 (Bacillus cereus strain MHI 1532 (endogenous in culture supernatant)) (UniProt P80172); assay: co-IP
[2] = molecular target: recombinant Hbl L1 (haemolysin BL component L1) (Bacillus cereus strain F837/76); assay: SPR; BIACORE 3000; rHbl L1 amine-coupled to CM5 chip (560 RU); rHbl L2 or B injected 7.8 nM to 2 uM at 30 uL/min, 20 °C, in PBS, 1 mM DTT, 0.005% Tween 20; KD from steady state, one-site model, mean of three (L2) or four (B) experiments; L1 + B did not reach full saturation at lower concentrations, KD likely slightly underestimated
[3] = molecular target: recombinant Hbl B (haemolysin BL binding component B) (Bacillus cereus strain F837/76) (UniProt P80172); assay: SPR; BIACORE 3000; rHbl B amine-coupled to CM5 chip (500 RU); rHbl L2 injected 31.2 nM to 4 uM at 30 uL/min, 20 °C, in PBS, 1 mM DTT, 0.005% Tween 20; KD from steady state, mean of four experiments

Row | Substance | percent in elution fraction [1] [%] | percent in sample flow-through [1] [%] | percent in wash fraction [1] [%] | Kd [2] [nM] | Kd [3] [nM]
1 | Hbl L1 in culture supernatant of B. cereus strain MHI 1532 (natural protein) | 180 | < 5 | < 5 | – | –
2 | Hbl L2 in culture supernatant of B. cereus strain MHI 1532 (natural protein) | 29 | 51 | 20 | – | –
3 | recombinant Hbl B (haemolysin BL binding component B) (from UniProt P80172 32-375) (natural protein) | – | – | – | 470 | –
4 | recombinant Hbl L2 (haemolysin BL component L2) (natural protein) | – | – | – | 150 | 3400
